B1: GDNF (protein)
chain: KRSPDKQMAVLPRRERNRQAAAANPENSRGKGRRGQRGKNRGCVLTAIHLNVTDLGLGYETKEELIFRYCSGSCDAAETTYDKILKNLSRNRRLVSDKVGQACCRPIAFDDDLSFLDDNLVYHILRKHSAKRCGCI

What was measured:
[1] = biological target: GFRα1 soluble form (Homo sapiens) (UniProt P56159); assay: SPR; settings: cited from earlier work
[2] = biological target: T1, GFRα1 (Homo sapiens, UniProt P56159); assay: MST
T1 chain: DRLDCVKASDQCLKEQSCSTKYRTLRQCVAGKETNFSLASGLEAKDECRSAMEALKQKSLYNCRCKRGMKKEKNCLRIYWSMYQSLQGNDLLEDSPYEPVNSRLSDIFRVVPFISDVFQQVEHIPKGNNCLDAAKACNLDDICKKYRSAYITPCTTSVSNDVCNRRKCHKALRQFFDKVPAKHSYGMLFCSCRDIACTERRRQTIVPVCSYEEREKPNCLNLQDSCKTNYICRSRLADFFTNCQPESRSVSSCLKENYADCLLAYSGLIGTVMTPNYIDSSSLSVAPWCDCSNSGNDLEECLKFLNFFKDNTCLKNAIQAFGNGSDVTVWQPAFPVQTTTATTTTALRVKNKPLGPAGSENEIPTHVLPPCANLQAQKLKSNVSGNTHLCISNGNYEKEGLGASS

Row | Molecule | Kd [1] | Kd [2]
1 | GDNF (from UniProt P39905) | 0.63 nM | –
2 | B1 | – | 260 nM
